# B1: GAL4 DNA binding domain fusion of the cytoplasmic domain of CD28 (receptor, UniProt P04386 1-147, looked up)
# chain: MKLLSSIEQACDICRLKKLKCSKEKPKCAKCLKNNWECRYSPKTKRSPLTRAHLTEVESRLERLEQLFLLIFPREDLDMILKMDSLQDIKALLTGLFVQDNVNKDAVTDRLASVETDMPLTLRQHRISATSSSEESSNKGQRQLTVSRSKRSRLLHSDYMNMTPRRPGPTRKHYQPYAPPRDFAAYRS
# notes: also called CD28 (yeast bait)
# B2: GAL4 activation domain-FADD fusion protein (GAL4ad-FADD) (other, not shown: large carriers)
# chain: MDPFLVLLHSVSSSLSSSELTELKFLCLGRVGKRKLERVQSGLDLFSMLLEQNDLEPGHTELLRELLASLRRHDLLRRVDDFEAGAAAGAAPGEEDLCAAFNVICDNVGKDWRRLARQLKVSDTKIDSIEDRYPRNLTERVRESLRIWKNTEKENATVAHLVGALRSCQMNLVADLVQEVQQARDLQNRSGAMSPMSWNSDASTSEAS
# Assays:
# [1] = biological target: T1, GST (UniProt P08515 1-218 = GST); assay: GST pull-down of 35S-labeled in vitro translated FADD, SDS-PAGE and autoradiography
# T1 construct: Control protein on glutathione beads
# [2] = biological target: T2, GAL4 DNA binding domain fusion of full-length A20 (UniProt P04386 1-147; P21580 1-790); assay: yeast two-hybrid
# T2 construct: also called A20 (yeast bait)
# From the text: (§1) The following yeast two-hybrid system was used and constructed as follows. The cytoplasmic domains of Fas, Fas-FD8, TNRF-1, Δ-TNFR-1, CD40, and CD28 were obtained by PCR and cloned in-frame, as confirmed by sequencing, into the GAL4 DNA binding domain (GAL4bd) vector pAS1CYH2. Full-length A20 and B94 were similarly cloned into the bait vector. GAL4bd-Fas was cotransformed with a prey plasmid containing a human B-cell cDNA expression library fused to the GAL4 activation domain (GAL4ad) in the pACT plasmid. A more detailed account of the plasmids used in the procedure for the yeast two-hybrid system can be found in Hu et al. (1994) *J. Biol. Chem.* 269:30069-30072.
# (§2) The yeast two-hybrid system was used to screen for proteins that interact with the cytoplasmic domain of Fas. An expression vector was constructed by fusing the GAL4 DNA-binding domain to the cytoplasmic tail of the human Fas antigen (GAL4bd-Fas). This bait plasmid was cotransformed in yeast with a prey plasmid containing a human B-cell cDNA expression library fused to the GAL4-activation domain. Seventeen positive clones were obtained from 2 ×10^6 transformants screened. To determine the specificity of interaction, plasmids containing the activation domain fusion proteins were recovered from the putative positive clones and cotransformed with GAL4bd-Fas and control heterologous baits.
# [3] = biological target: T3, GAL4 DNA binding domain fusion of full-length B94 (UniProt P04386 1-147; Q03169 1-654); assay: yeast two-hybrid
# T3 construct: also called B94 (yeast bait)
# From the text: as §1, §2
# [4] = biological target: T4, GAL4 DNA binding domain fusion of the cytoplasmic domain of CD40 (UniProt P04386 1-147; P25942 216-277, limits assumed); assay: yeast two-hybrid
# T4 construct: also called CD40 (yeast bait)
# From the text: as §1, §2
# [5] = biological target: GAL4 DNA-binding domain fused to the cytoplasmic tail of the human Fas antigen (GAL4bd-Fas) (human, UniProt P04386 1-147; P25445 191-335, limits assumed); assay: yeast two-hybrid
# From the text: as §1, §2
# [6] = biological target: B1; assay: yeast two-hybrid
# From the text: as §1, §2
# [7] = biological target: T1, GST; assay: GST pull-down from lysates of transfected 293T cells
# Experimental: (§3) Detergent lysates were prepared and incubated with various GST fusion proteins immobilized on glutathione-Sepharose beads. The samples were analyzed by SDS-PAGE and autoradiography (upper panel). The respective GST fusion proteins are shown as in FIG. 4B (middle panel).
# [8] = biological target: T5, GST-Fas (GST fusion protein containing the cytoplasmic domain of Fas) (UniProt P25445 191-335); assay: as above
# T5 construct: domain: cytoplasmic domain; Made in E. coli BL21(DE3)pLysS and immobilized on glutathione beads; not shown: glutathione S-transferase of vector pGSTag
# T5 sequence (looked up): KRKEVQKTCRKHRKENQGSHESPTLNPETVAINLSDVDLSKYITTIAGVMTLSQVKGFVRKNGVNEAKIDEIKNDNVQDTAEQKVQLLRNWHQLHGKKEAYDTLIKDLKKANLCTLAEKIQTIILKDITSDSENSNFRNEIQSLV
# Experimental: as §3
# [9] = biological target: T6, cytoplasmic domain of Fas (UniProt P25445 191-335, limits assumed); assay: not described
# T6 construct: domain: cytoplasmic domain
# T6 sequence (looked up): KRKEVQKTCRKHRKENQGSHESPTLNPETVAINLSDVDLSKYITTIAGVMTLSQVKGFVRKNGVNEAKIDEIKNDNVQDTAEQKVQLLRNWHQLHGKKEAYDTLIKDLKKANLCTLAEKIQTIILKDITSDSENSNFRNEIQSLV
# [10] = biological target: B2; assay: yeast two-hybrid, β-galactosidase filter assay
# From the text: as §1, §2
# [11] = biological target: T2, GAL4 DNA binding domain fusion of …; assay: yeast two-hybrid, β-galactosidase filter assay
# From the text: as §1, §2
# [12] = biological target: T3, GAL4 DNA binding domain fusion of …; assay: yeast two-hybrid, β-galactosidase filter assay
# From the text: as §1, §2
# [13] = biological target: T4, GAL4 DNA binding domain fusion of the …; assay: yeast two-hybrid, β-galactosidase filter assay
# From the text: as §1, §2
# T1 sequence (P08515 whole entry): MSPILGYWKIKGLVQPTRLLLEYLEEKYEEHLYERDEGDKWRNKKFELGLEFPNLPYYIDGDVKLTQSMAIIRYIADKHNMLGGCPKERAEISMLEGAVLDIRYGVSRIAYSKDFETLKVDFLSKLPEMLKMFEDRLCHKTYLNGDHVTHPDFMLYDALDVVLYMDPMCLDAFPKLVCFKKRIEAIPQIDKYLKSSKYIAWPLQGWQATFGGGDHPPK
binder,measurement,setting,value
"HA-epitope tagged FADD (HA-FADD) (other, 35S-methionine/cysteine metabolic or in vitro translation label, also called in vitro translated FADD; 35S-labeled FADD) YPYDVPDYAMDPFLVLLHSVSSSLSSSELTELKFLCLGRVGKRKLERVQSGLDLFSMLLEQNDLEPGHTELLRELLASLRRHDLLRRVDDFEAGAAAGAAPGEEDLCAAFNVICDNVGKDWRRLARQLKVSDTKIDSIEDRYPRNLTERVRESLRIWKNTEKENATVAHLVGALRSCQMNLVADLVQEVQQARDLQNRSGAMSPMSWNSDASTSEAS",binding result,[1],no binding
"clone 8 (GAL4 activation domain fusion isolated in the yeast two-hybrid screen) (other, not shown: large carriers) SGLDLFSMLLEQNDLEPGHTELLRELLASLRRHDLLRRVDDFEAGAAAGAAPGEEDLCAAFNVICDNVGKDWRRLARQLKVSDTKIDSIEDRYPRNLTERVRESLRIWKNTEKENATVAHLVGALRSCQMNLVADLVQEVQQARDLQNRSGAMSPMSWNSDASTSEAS",binding result,[2],no binding
same,binding result,[3],no binding
same,binding result,[4],no binding
same,binding result,[5],binds
same,binding result,[6],no binding
"clone 15 (GAL4 activation domain fusion isolated in the yeast two-hybrid screen) (other, not shown: large carriers, also called GAL4ad-FADD (clone 15)) KFLCLGRVGKRKLERVQSGLDLFSMLLEQNDLEPGHTELLRELLASLRRHDLLRRVDDFEAGAAAGAAPGEEDLCAAFNVICDNVGKDWRRLARQLKVSDTKIDSIEDRYPRNLTERVRESLRIWKNTEKENATVAHLVGALRSCQMNLVADLVQEVQQARDLQNRSGAMSPMSWNSDASTSEAS",binding result,[2],no binding
same,binding result,[3],no binding
same,binding result,[4],no binding
same,binding result,[6],no binding
"AU1-epitope tagged FADD (AU1-FADD) (other, 35S-methionine/cysteine metabolic label, the tag is placed N-terminal by the name only) DTYRYIMDPFLVLLHSVSSSLSSSELTELKFLCLGRVGKRKLERVQSGLDLFSMLLEQNDLEPGHTELLRELLASLRRHDLLRRVDDFEAGAAAGAAPGEEDLCAAFNVICDNVGKDWRRLARQLKVSDTKIDSIEDRYPRNLTERVRESLRIWKNTEKENATVAHLVGALRSCQMNLVADLVQEVQQARDLQNRSGAMSPMSWNSDASTSEAS",binding result,[7],no binding
"AU1-FADDmt (other, 35S-methionine/cysteine metabolic label, also called point mutant of FADD) DTYRYIMDPFLVLLHSVSSSLSSSELTELKFLCLGRVGKRKLERVQSGLDLFSMLLEQNDLEPGHTELLRELLASLRRHDLLRRVDDFEAGAAAGAAPGEEDLCAAFNVICDNVGKDWRRLARQLKNSDTKIDSIEDRYPRNLTERVRESLRIWKNTEKENATVAHLVGALRSCQMNLVADLVQEVQQARDLQNRSGAMSPMSWNSDASTSEAS",binding result,[7],no binding
same,binding result,[8],no binding
"N-FADD (other, the AU1-tagged form is the one made for the cell death assays; also called AU1-N-FADD) DTYRYIMDPFLVLLHSVSSSLSSSELTELKFLCLGRVGKRKLERVQSGLDLFSMLLEQNDLEPGHTELLRELLASLRRHDLLRRVDDFEAGAAAGAAPGEEDLCAAFNVICDNVGKDWRRLAR",binding result,[9],no binding
B1,binding result,[10],no binding
B2,binding result,[11],no binding
same,binding result,[12],no binding
same,binding result,[13],no binding
